{
  "source": "paper PMC11555092",
  "target": "HIV-1 CA hexamer (CA A14C/E45C/W184A/M185A mutant) (HIV-1)",
  "assay": "SEC; Superdex 10/300 GL increase column in 50 mM Tris pH 8; elution at 12.5 mL",
  "data": [
    {"substance": "HIV-1 CA hexamer (CA A14C/E45C/W184A/M185A mutant) (complex)", "values": [
      {"measurement": "stoichiometry N", "result": 6}
    ]}
  ]
}
